B1: VapC toxin from Leptospira interrogans serovar Copenhageni (LIC12660), 6xHis-tagged, refolded by hig (enzyme)
chain: MYLLDTNICIFLIKKKNATLLENLKKKLNKDLFVSSLTVAELEFGIQKSEFKEKNKVALIEFLTIFNILSFSDKDAESYGIIRADLERKGNVIGSIDMLLAAQAIANNYIFVTNNTKEFKRIKALKIENWTQ
notes: also called pressurized VapC
B2: VapC toxin from Leptospira interrogans serovar Copenhageni (LIC12660), non-tagged, co-expressed with VapB (enzyme)
chain: MYLLDTNICIFLIKKKNATLLENLKKKLNKDLFVSSLTVAELEFGIQKSEFKEKNKVALIEFLTIFNILSFSDKDAESYGIIRADLERKGNVIGSIDMLLAAQAIANNYIFVTNNTKEFKRIKALKIENWTQ
notes: Translated from the bicistronic mRNA under a single promoter; also called non-tagged VapC

Target: the molecule itself
Experiment: non-reducing SDS-PAGE

Protein | stoichiometry N
B1 | 2
B2 | 2

Source: PMC4105405, “VapC from the Leptospiral VapBC Toxin-Antitoxin Module Displays Ribonuclease Activity on the Initiator tRNA” (PLoS ONE, 2014)
